Here are results for 4 substances from patent US20100150834A1, “HIGH AFFINITY EPHB RECEPTOR BINDING COMPOUNDS AND METHODS OF USE THEREOF” (priority 2006, published 2010).

For orientation: Kd means a measure of binding affinity in units of concentration. As a reminder, the IC50 is the concentration that gives 50% inhibition.

In one experiment the target is murine EphB4-Fc (murine) (UniProt P54761). The experiment is described as follows: ELISA: murine EphB4-Fc on protein A plates, biotinylated peptide detected with streptavidin-HRP. On the technique in general: An ELISA detects its analyte on a solid surface through an enzyme-linked reagent.
Experiment [1] addresses murine EphB4-Alkaline Phosphatase (murine) (UniProt P54761). Kind of experiment: competition ELISA: murine EphB4-AP binding to immobilised murine ephrin-B2-Fc.
For experiment [2] the target is unchanged. The experiment is described as follows: ELISA binding curve: TNYL-RAW Fc immobilised, increasing volumes of murine EphB4 AP, OD405; one experiment.

Chain of murine EphB4-Fc (murine) (P54761 16-539 limits assumed): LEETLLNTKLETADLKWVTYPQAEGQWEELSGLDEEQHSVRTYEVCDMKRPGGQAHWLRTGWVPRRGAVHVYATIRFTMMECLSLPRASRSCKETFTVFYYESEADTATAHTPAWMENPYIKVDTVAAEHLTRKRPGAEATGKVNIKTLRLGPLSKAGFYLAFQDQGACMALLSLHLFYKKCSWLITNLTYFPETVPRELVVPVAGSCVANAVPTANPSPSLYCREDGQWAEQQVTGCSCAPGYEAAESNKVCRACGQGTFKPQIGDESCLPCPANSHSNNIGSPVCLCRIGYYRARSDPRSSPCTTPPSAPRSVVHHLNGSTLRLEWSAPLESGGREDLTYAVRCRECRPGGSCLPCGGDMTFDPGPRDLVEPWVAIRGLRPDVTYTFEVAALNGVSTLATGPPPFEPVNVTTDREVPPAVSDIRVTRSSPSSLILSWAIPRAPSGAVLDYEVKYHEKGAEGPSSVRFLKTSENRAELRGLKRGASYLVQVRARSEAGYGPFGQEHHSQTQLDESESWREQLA
Chain of murine EphB4-Alkaline Phosphatase (murine) (P54761 16-539): as the sequence (P54761 16-539 limits assumed) above

“PEG 3.4 kDa-linked TNYL-RAW-biotin dimer (peptide)” showed a Kd with murine EphB4-Fc (murine) of 0.9 nM. Further, the IC50 in experiment [1] is 7 nM.
The matching figures for “PEG 10 kDa-linked TNYL-RAW-biotin dimer (peptide)”: 0.9 nM and 9 nM.
As to TNYL-RAW Fc fusion protein, in experiment [2], the Kd was determined as 10 nM. That is a double-digit nanomolar value.
Regarding “TNYL-RAW-biotin coupled to monofunctional 10 kDa PEG (monomer) (peptide)”, the Kd in the experiment with murine EphB4-Fc (murine) was determined as 1.4 nM. Further, the IC50 in experiment [1] was 21 nM.
